Test results reported in paper PMC12675543 (Nature Communications, 2025).

Legend:
Assay in all cases: SPR; biotinylated p62 constructs or His-MBP immobilised on streptavidin sensor chips (520-700 RU); VHHp62 injected in serial dilution; 50 mM Tris, 150 mM NaCl, 1 mM TCEP, 0.05% Tween-20, pH 7.4, 25 °C; kinetic 1:1 model
Conditions in all cases: both partners purified
[1] = target: T1, His-MBP-avi (Escherichia coli K12 (assumed), UniProt P0AEX9 = MBP, biotinylated)
T1 construct: Control surface protein in SPR; also called His-MBP tag; not shown: His, N-terminal, kept; Avi, C-terminal, kept

[2] = target: T2, p62(387-446)-Avi (Homo sapiens, UniProt Q13501, biotinylated)
T2 construct: p62 (SQSTM1), human, UBA domain, printed as residues 387-446; SPR construct; also called p62UBA; p62 ubiquitin associated domain; source: E. coli BL21 (DE3), purified (IMAC, 3C cleavage, SEC); not shown: His-MBP, N-terminal, cleaved; Avi, C-terminal, kept

[3] = target: T3, p62(122-181)-Avi (Homo sapiens, UniProt Q13501, biotinylated)
T3 construct: p62 (SQSTM1), human, ZZ domain, residues 122-181; also called p62ZZ; p62 ZZ domain; source: E. coli BL21 (DE3), purified (IMAC, 3C cleavage, SEC); not shown: His-MBP, N-terminal, cleaved; Avi, C-terminal, kept

[4] = target: T4, His-MBP-p62(85-440)-Avi (Homo sapiens, UniProt Q13501, biotinylated)
T4 construct: also called immunogen; p62 lacking essential parts of the PB1 domain; source: recombinant; not shown: His, N-terminal, kept; MBP, N-terminal, kept; Avi, C-terminal, kept

B1: VHHp62-His (6C10) (VHH)
VHH: EVQLVESGGGLVQPGGSLRLSCVASGFTFSNYWMYWVRQAPGKGLEWVSTINTGSGAAYYTSSVKGRFTISRDNAKNTLYLQMNSLKSEDTAVYYCATDLRGAQRGQGTQVTVSS
notes: anti-p62 VHH from immunised llamas, phage display clone 6C10; the AlphaFold2 model of VHHp62 had 121 residues; also called VHH 6C10; p62 single-domain antibody; source: Pichia pastoris (Komagataella phaffii), secreted, purified (IMAC, desalting); not shown: His, C-terminal, kept
With B1 the binding result [1] was “no binding”, the Kd [2] was 36 nM and the binding result [3] was “no binding”. For the same binder, the Kd [4] was 11 nM.
